Reference: US20030108912, “Liver enriched transcription factor” (published 2003)

Molecular target: T1, HNF-4 Hph I truncation (Rattus norvegicus, UniProt P22449 SEQ:1-219)
T1 chain: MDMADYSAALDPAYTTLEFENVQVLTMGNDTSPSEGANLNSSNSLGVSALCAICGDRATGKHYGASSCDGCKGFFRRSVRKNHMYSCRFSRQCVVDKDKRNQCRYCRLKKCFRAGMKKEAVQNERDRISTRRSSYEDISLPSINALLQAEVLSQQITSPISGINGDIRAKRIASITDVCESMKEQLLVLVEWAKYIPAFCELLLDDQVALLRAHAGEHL
Assay: EMSA; zinc fingers present, dimerization region absent
Conditions: label: 32P; four-base 5' overhangs

B1: APF1 (dsDNA)
DNA 1: TCGAGCGCTGGGCAAAGGTCACCTGC
DNA 2: GCAGGTGACCTTTGCCCAGCGCTCGA
binding result: no binding
